“And” between values parts separate entries of the source, which are not always exact repeats. Identical values can stand only once. Where a SMILES comes first, the peptide text is derived from it. Bridges are numbered along the chain shown (N, C = ends). Where no end group is shown, it is not given here.
Legend:
non-transfected cells = experiment: Intracellular calcium ([Ca2+]i) measurement with fura-2 in non-transfected cells; assay type: cell-based, human; details: data not shown
Excerpt: (§1) The entire coding sequence of human HG67 was cloned into BamHI -NotI site of pEF1/V5-HisB plasmid vector (Invitrogen, Carlsbad, Calif.). The resultant construct was transfected into HEK-293T cells using Effectene (Qiagen, Hilden, Germany) or LipofectAmine PLUS (Life Technologies) according to the manufacture's instructions. Human embryonic kidney cells constitutively expressing SV40 large T antigen (HEK-293T) were maintained in D-MEM/F-12 medium (Life Technologies, Rockville, Md.) supplemented with 10% fetal bovine serum, 100 units/ml penicillin-G and 100 μg/ml streptomycin at 37° C. with 5% CO2 in a humidified atmosphere.
(§2) The intracellular calcium ion concentration ([Ca^2+]i) was measured fluorometrically using a Ca^2+-sensitive fluorescent dye, fura-2. HEK293T cells transiently transfected with pEF1/V5-HisB plasmid vector harboring HG67 cDNA were harvested by phosphate-buffered saline containing 2 mM EDTA 48 hours after transfection, and washed once with the assay buffer (Hanks' balanced salt solution, 10 mM HEPES, 0.1% BSA, pH 7.4). The cells were suspended with the buffer containing 2 μM fura-2 acetoxymethylester (Dojin, Kumamoto, Japan) into the cell density of 1.0×10^7 cells/ml and incubated at 37° C. for 60 minutes with gently shaking. The fura-2-loaded cells were washed twice with the buffer and re-suspended with the buffer to 1.0×10^6 cells/ml. […]

HG67 = target: T1, HG67 (Homo sapiens, UniProt Q969V1); experiment: Intracellular calcium ([Ca2+]i) measurement with fura-2 in HEK293T cells transiently expressing HG67; assay type: cell-based; details: HEK293T cells transiently expressing HG67, fura-2; read-out: EC50 of increase in intracellular calcium levels
T1 construct: expressed in transfected cells; host or cells: HEK-293T, transient
Excerpt: as §1, §2

MCH-R1 [1] = target: T2, MCH-R1 (Homo sapiens, UniProt Q99705); experiment: cell-based or functional assay
[2] = target: HG67 (melanin-concentrating hormone receptor 2) (human) (UniProt Q969V1); experiment: cell-based or functional assay
MCH-R1 [3] = target: T2, MCH-R1; experiment: SPA, displacement of [125I]Phe13Tyr19-MCH from MCH-R1 membranes
[4] = target: HG67 (melanin-concentrating hormone receptor 2) (human) (UniProt Q969V1); experiment: SPA, displacement of [125I]Phe13Tyr19-MCH from MCH-R2 membranes
MCH-R1 [5] = target: T2, MCH-R1; experiment: SPA, CHO/MCH-R1 membranes, nonspecific defined with 500 nM unlabeled MCH
[6] = target: HG67 (melanin-concentrating hormone receptor 2) (human) (UniProt Q969V1); experiment: SPA, COS or CHO MCH-R2 membranes, nonspecific defined with 500 nM unlabeled MCH
mock transfected cells = experiment: [125I]-MCH binding to mock transfected HEK293T cells; parameters: species or system human
MCH-R1 [7] = target: T2, MCH-R1; experiment: Pertussis toxin effect on MCH-R1 signaling; assay type: cell-based; details: dose dependent
Excerpt: MCH-R2 appears to activate Gαq. […] Intracellular calcium mobilization through MCH-R2 was not affected by different concentrations of pertussis toxin (PTX), while MCH-R1 signaling was reduced in a dose dependent manner to about 50%. The results of incomplete PTX-inhibition of MCH-R1 signaling is in contrast to Lembo, et al., 1999. […] (Tadayyon, et al., 2000. 275(2), 709-712).

MCH-R1 [8] = target: T2, MCH-R1; details: Lembo, et al., 1999; cited from earlier work
[9] = target: T3, HG67 (melanin-concentrating hormone receptor 2) (human, UniProt Q969V1 1-340); experiment: SPA, displacement of [125I]Phe13Tyr19-MCH from MCH-R2 membranes
T3 construct: also called MCH-R2; MCH-2R
Experimental: (§3) SPA was carried out using wheat-germ agglutinin-polyvinyltoluene beads (Amersham Corp., Arlington Heights, Ill.), in 96-well OptiPlates (Packard, Meriden, Conn.). Each well contained 0.25 mg of SPA beads, 1–10 μg of membrane protein, and 200 μl of binding buffer.
(§4) After equilibrating at room temperature for 3 hours, the plates were read in a TopCount (Packard, Meriden, Conn.). IC$50$ calculations were performed using Prism 3.0 (GraphPad Software, San Diego, Calif.).

[10] = target: T3, HG67 (melanin-concentrating hormone …); experiment: cell-based or functional assay
[11] = target: T3, HG67 (melanin-concentrating hormone …); experiment: cell-based or functional assay; remark: listed apart in the source
MCH-R1 [12] = target: T4, MCH-R1 (Homo sapiens (Human), UniProt Q99705 1-353); experiment: SPA, displacement of [125I]Phe13Tyr19-MCH from MCH-R1 membranes
T4 construct: also called MCH-1R; CHO/MCH-R1
Experimental: as §3, §4

MCH-R1 [13] = target: T4, MCH-R1; experiment: cell-based or functional assay

T3 sequence (Q969V1 whole entry): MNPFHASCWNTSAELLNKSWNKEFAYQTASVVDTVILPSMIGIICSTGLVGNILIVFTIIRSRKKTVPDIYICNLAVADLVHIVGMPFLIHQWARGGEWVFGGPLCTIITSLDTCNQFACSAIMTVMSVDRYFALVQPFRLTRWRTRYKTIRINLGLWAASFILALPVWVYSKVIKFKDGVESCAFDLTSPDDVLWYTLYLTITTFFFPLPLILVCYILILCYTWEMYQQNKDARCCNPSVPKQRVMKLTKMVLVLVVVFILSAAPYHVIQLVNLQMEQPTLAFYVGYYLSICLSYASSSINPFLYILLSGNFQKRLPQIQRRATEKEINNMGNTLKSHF
Sequence of HG67 (melanin-concentrating hormone receptor 2) (human) (Q969V1 whole entry): as above
T4 sequence (Q99705 whole entry, form in doubt): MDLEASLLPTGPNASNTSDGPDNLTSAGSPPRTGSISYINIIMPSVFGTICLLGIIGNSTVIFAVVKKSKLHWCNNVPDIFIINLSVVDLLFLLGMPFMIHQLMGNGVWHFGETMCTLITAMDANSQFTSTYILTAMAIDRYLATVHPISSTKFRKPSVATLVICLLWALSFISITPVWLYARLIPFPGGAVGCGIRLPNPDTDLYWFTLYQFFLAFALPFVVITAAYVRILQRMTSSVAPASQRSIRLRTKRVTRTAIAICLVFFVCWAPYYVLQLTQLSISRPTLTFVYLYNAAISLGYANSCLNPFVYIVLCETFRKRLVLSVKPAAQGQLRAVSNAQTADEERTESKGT
T1 sequence (Q969V1 whole entry): as the sequence (Q969V1 whole entry) above

Q: With CSCC[C@@H]1NC(=O)[C@@H](NC(=O)[C@H](CCCNC(=N)N)NC(=O)[C@H](CC(C)C)NC(=O)[C@H](CCSC)NC(=O)[C@H](CC(=O)O)NC(=O)[C@H](Cc2ccccc2)NC(=O)[C@@H](N)CC(=O)O)CSSC[C@@H](C(=O)N[C@@H](Cc2c[nH]c3ccccc23)C(=O)N[C@@H](CCC(N)=O)C(=O)N[C@@H](CC(C)C)C(=O)O)NC(=O)[C@@H]2CCCN2C(=O)[C@H](CCCNC(=N)N)NC(=O)[C@H](Cc2ccccc2)NC(=O)[C@H](C(C)C)NC(=O)[C@H](CCCNC(=N)N)NC(=O)CNC(=O)[C@H](CC(C)C)NC1=O [[Phe^13, Leu^19]-MCH] (H-DFDMLRCMLGRVFRPCWQL-OH; disulfide 7-16 (inferred); N-terminus and C-terminus assumed) as the molecule, how does the “[Ca2+]i increase in the non-transfected cells” value (non-transfected cells) read?
A: failed to induce detectable [Ca^2+]i increase

Q: And the EC50 (HG67)?
A: 0.078 nM

Q: For Melanin-concentrating hormone [MCH], which “[Ca2+]i increase in the non-transfected cells” value (non-transfected cells) is on record?
A: failed to induce detectable [Ca^2+]i increase

Q: Which Function (EC50) (MCH-R1 [1]) does the source give for Salmon MCH (peptide) here?
A: 119 nM

Q: What about the Function (EC50) [2] of the same molecule?
A: 90.5 nM

Q: What about the IC50 (MCH-R1 [3]) of the same molecule?
A: 0.2 nM

Q: And the IC50 [4]?
A: 437 nM

Q: What does the source list for “[125I]Phe^13Tyr^19-MCH (from UniProt P20382 147-165) (peptide)”?
A: specific binding window (MCH-R1 [5]): 6 x; specific binding window [6]: 3 x

Q: For “[Phe^13, Leu^19]-MCH (from UniProt P20382 147-165) (peptide)”, which increase in intracellular calcium levels (fura-2), EC50 [2] is on record?
A: 78 pM

Q: With “[^125I]-MCH: radioiodinated MCH, NEN Life Science Products” as the molecule, how does the “Specific binding to mock transfected cells” value (mock transfected cells; in words) read?
A: any specific binding was not observed

Q: And the “Nonspecific binding (1 μM MCH)” value (mock transfected cells; mock transfected HEK293T cells, [125I]-MCH 100 pM plus 1 μM cold MCH, two values per cell)?
A: 352.2 Cpm and 326.6 Cpm

Q: And the “Total binding (DMSO)” value (mock transfected cells; mock transfected HEK293T cells, [125I]-MCH 100 pM, two values per cell)?
A: 516.4 Cpm and 392.5 Cpm

Q: With pertussis toxin as the molecule, how does the “MCH-R1 signaling remaining after PTX (reduced to)” value (MCH-R1 [7]) read?
A: about 50%

Q: What about the “PTX inhibition of MCH-1R signaling” value (MCH-R1 [8]) of the same molecule?
A: complete PTX inhibition

B1: human melanin-concentrating hormone (MCH) (peptide, UniProt P20382 147-165, looked up)
peptide: DFDMLRCMLGRVYRPCWQV
modifications: ends and bridges not checked; cysteine pairing not given here
notes: mature; Both are treated as one molecule; the mature 19-mer is its C-terminal part; also called Human MCH; cold MCH
Q: Which IC50 [9] does the source give for B1 here?
A: 1.5 nM

Q: What about the “IP turnover, EC50” value [10] of the same molecule?
A: 2.8 nM

Q: And the “aequorin assay in HEK293/aeq17/Galpha15 cells, EC50” value [10]?
A: 26 nM

Q: And the “increase in intracellular calcium levels (fura-2), EC50” value [10]?
A: 20 pM

Q: What about the “Function (EC50)” value [11] of the same molecule?
A: 44.1 nM

Q: For DFDMLRCMLGRVFRPCWQY [(Phe^13Tyr^19)-MCH], which IC50 [9] is on record?
A: 0.8 nM

Q: And the IC50 (MCH-R1 [12])?
A: 0.3 nM

Q: And the “Function (EC50)” value [11]?
A: 65.5 nM

Q: What about the “Function (EC50)” value (MCH-R1 [13]) of the same molecule?
A: 83.1 nM
